Where two headings read alike, the source gives them in different places.
Legend:
[1] = target: β-S109C/Q299C/R103S-(AF488)2 (E. coli) (UniProt P0A988); assay: other fluorescence titration
[2] = target: β-S109C/Q299C-(AF488)2 (E. coli) (UniProt P0A988); assay: other fluorescence titration
β-S109C-AF488 (E. coli) = β-S109C-AF488 (E. coli) (UniProt P0A988); assay: stopped-flow fluorescence kinetics
[3] = target: β-S109C/Q299C/R103S-(AF488)2 (E. coli) (UniProt P0A988); assay: stopped-flow fluorescence kinetics
[4] = target: β-R103C/I305C-(AF488)2 (E. coli) (UniProt P0A988); assay: stopped-flow fluorescence kinetics
[5] = target: β-S109C/Q299C/R103S-(AF488)2 (E. coli) (UniProt P0A988); assay: other fluorescence titration; remark: listed apart in the source
[6] = target: β-S109C/Q299C-(AF488)2 (E. coli) (UniProt P0A988); assay: other fluorescence titration; remark: listed apart in the source
[7] = target: β-S109C/Q299C/R103S-(AF488)2 (E. coli) (UniProt P0A988); assay: stopped-flow fluorescence kinetics; remark: listed apart in the source

“E. coli clamp loader, γ complex (γ3δδ’ψχ subunits) (from UniProt P06710-2;P28630;P28631;P28905;P28632)” showed a Kd [1] of 5 nM, a Kd [2] of 5.3 nM and a maximum observed rate constant, slow phase (clamp opening step) (β-S109C-AF488 (E. coli)) of 8 s⁻¹. It also gave a koff, fast phase (k f) [3] of 0.039 s⁻¹, a koff, slow phase (k s) [3] of 0.0098 s⁻¹ and a k close (reverse of step 2 of the bind-open-lock model) [4] of 4 s⁻¹. It also gave a k open (step 2 of the bind-open-lock model) [4] of 9 s⁻¹, a koff, fast phase (k f) [4] of 0.058 s⁻¹ and a koff, slow phase (k s) [4] of 0.011 s⁻¹. The limiting observed rate constant, rapid phase of opening [4] was 11 s⁻¹, the limiting observed rate constant, slow phase of opening [4] was 1.5 s⁻¹ and the Kd [5] was 4.2 nM. It also gave a Kd [6] of 7 nM, a koff, fast phase (k f) [7] of 0.046 s⁻¹ and a koff, slow phase (k s) [7] of 0.012 s⁻¹.
